First the molecules themselves.
B1: Twister Ribozyme (parent)
chain: AACACUGCCAAUGCCGGUCCCAAGCCCGGAUAAAAGUGGAGGGGGCGG

The data set covers variants of B1. Kind of data set: self-cleavage, relative activity (ratio to wild type); higher = more cleavage; co-transcriptional.
Take C15U A22G: the self-cleavage came out at 0.147.

G29U A34G: the self-cleavage was determined as 0.684.

Regarding G13A A32U, the self-cleavage is 0.961.

In the case of A35C G36A, the self-cleavage was 0.491.

With A11G G41A, the self-cleavage was 0.505.

C25U C27U: the self-cleavage worked out at 0.74.

Regarding C9G C21G, the self-cleavage is 0.115.

As for C27U G29C, the self-cleavage was determined as 0.124.

As for G29A A34U, the self-cleavage stood at 0.833.

For the variant A1G G45U, the self-cleavage is 0.274.

As for A1G C20A, the self-cleavage was 0.273.

C27G G41U: the self-cleavage turned out to be 0.0753.

In the case of C5G G13C, the self-cleavage was 0.0798.

In the case of U18C A40C, the self-cleavage turned out to be 0.0612.

With C3G C19G, the self-cleavage was 0.107.

As to A2C U37A, the self-cleavage was 0.0604.

Take C25G C26U: the self-cleavage is 0.0513.

On to G38U G48C, for which the self-cleavage is 1.05.

As to C9A A30G, the self-cleavage came out at 0.846.

On to A35U G38C, for which the self-cleavage was found to be 0.973.

Regarding U6A C27A, the self-cleavage amounted to 0.119.

Consider C8A C20G, for which the self-cleavage worked out at 0.0882.

For C14A G29C, the self-cleavage was 0.947.

For C8A G47A, the self-cleavage was determined as 0.26.

As for C15G C27G, the self-cleavage was determined as 0.0738.

G17A A30U: the self-cleavage turned out to be 0.695.

On to A10G G38A, for which the self-cleavage was 0.89.

Regarding G16C G17U, the self-cleavage came to 0.174.

As for G36U G47A, the self-cleavage came out at 0.272.

On to G7A A35G, for which the self-cleavage was determined as 0.123.

As for G41A C46G, the self-cleavage turned out to be 0.429.

Turning to A4U A30G, the self-cleavage is 0.176.

With C3A G47C, the self-cleavage was determined as 0.145.

Turning to C21U G45U, the self-cleavage turned out to be 0.118.

As for A2G G42U, the self-cleavage stood at 0.11.

Take C5U G41A: the self-cleavage was determined as 0.214.

G17U A30G: the self-cleavage came out at 0.265.

With G16C G36C, the self-cleavage stood at 0.0717.

A4C U18G: the self-cleavage was found to be 0.111.

Regarding G28C A33U, the self-cleavage is 0.556.

In the case of C3A C26A, the self-cleavage is 0.139.

With C8G G47U, the self-cleavage amounted to 0.142.

Regarding G44C G48C, the self-cleavage was 0.225.

Take G16C A30U: the self-cleavage was 0.741.

For C14U C21U, the self-cleavage was determined as 0.141.

With A11U G39A, the self-cleavage amounted to 0.63.

Consider U18A C27U, for which the self-cleavage was 0.385.

For the variant A10U G13A, the self-cleavage was determined as 0.913.

Consider A22U A35G, for which the self-cleavage stood at 0.583.

In the case of C15A G38A, the self-cleavage was 0.4.

U6G A35U: the self-cleavage was 0.549.

As to A1U C27U, the self-cleavage is 0.0591.

Take A11C G29A: the self-cleavage is 0.531.

For the variant U31G G38A, the self-cleavage stood at 0.937.

In the case of C8A A10C, the self-cleavage was determined as 0.594.

In the case of G29U G42U, the self-cleavage turned out to be 0.261.

C8A U37C: the self-cleavage was 0.144.

For G43U G48A, the self-cleavage is 0.175.

With G43U G48C, the self-cleavage came to 0.205.

Regarding U31A A32G, the self-cleavage was determined as 0.985.

On to C21A G45U, for which the self-cleavage turned out to be 0.121.

Take C5G C21G: the self-cleavage was 0.155.

With C25G G38C, the self-cleavage worked out at 0.229.

For G41U G48U, the self-cleavage was determined as 0.584.

Turning to C3G G24C, the self-cleavage worked out at 0.0852.

Regarding G39U G44C, the self-cleavage amounted to 0.155.

Turning to C5U A40U, the self-cleavage was 0.146.

As to C3G G47A, the self-cleavage was 0.275.

As to C3A G39C, the self-cleavage is 0.0623.

Regarding U12G C46G, the self-cleavage was found to be 0.757.

Turning to G13A A30U, the self-cleavage was 0.899.

In the case of C25U A35G, the self-cleavage amounted to 0.46.

Consider G39C G47C, for which the self-cleavage is 0.167.

As to A2G A35C, the self-cleavage was 0.308.

As for C5A A10U, the self-cleavage came to 0.39.

With C20A U31A, the self-cleavage came out at 0.14.

Turning to A32C G42C, the self-cleavage stood at 0.326.

Turning to G44A G47C, the self-cleavage was 0.828.

In the case of A4C A10G, the self-cleavage was determined as 0.334.

Consider C9A G45C, for which the self-cleavage worked out at 0.131.

As to A32G G47U, the self-cleavage was determined as 0.893.

Consider G24C A33C, for which the self-cleavage amounted to 0.146.

A4C A33G: the self-cleavage was determined as 0.146.

As to C8U G16U, the self-cleavage is 0.459.

Regarding C25U G42C, the self-cleavage is 0.154.

As for A32U G41U, the self-cleavage was 0.659.

Take G28A G38U: the self-cleavage came out at 0.681.

For the variant G13U C20A, the self-cleavage amounted to 0.0934.

With A1U A34G, the self-cleavage was determined as 0.0704.

For the variant C19G G42U, the self-cleavage turned out to be 0.0912.

Consider C20A A30G, for which the self-cleavage was 0.114.

As to G29A G41C, the self-cleavage turned out to be 0.22.

With U18G C20U, the self-cleavage was determined as 0.102.

Consider C8U G48C, for which the self-cleavage worked out at 0.652.

Take C8U G48A: the self-cleavage stood at 0.45.

With C5U A34G, the self-cleavage was 0.511.

Consider G7U C25A, for which the self-cleavage amounted to 0.224.

Consider A40U G45C, for which the self-cleavage was found to be 0.129.

As to G29A A30G, the self-cleavage turned out to be 0.892.

Take U31C G41U: the self-cleavage was determined as 0.764.

As to G16U A22U, the self-cleavage amounted to 0.759.

As to G39U C46G, the self-cleavage was 0.172.

Take C3U A33C: the self-cleavage was found to be 0.476.

Take A34C G42C: the self-cleavage is 0.184.

Consider C19G C27U, for which the self-cleavage turned out to be 0.131.

Consider A2U A34U, for which the self-cleavage is 0.189.

Regarding A2G C27U, the self-cleavage amounted to 0.218.

Consider C3G U12G, for which the self-cleavage is 0.4.

Regarding C3G U12C, the self-cleavage was 0.447.

In the case of U18G C19G, the self-cleavage is 0.114.

For U6A A23U, the self-cleavage was 0.191.

Regarding U6A G44A, the self-cleavage is 0.943.

Turning to U6C A23U, the self-cleavage is 0.0534.

For the variant G7C C20G, the self-cleavage is 0.0473.

Regarding U18G G43U, the self-cleavage turned out to be 0.0664.

Turning to A34C G47U, the self-cleavage was 0.107.

In the case of C5A G24U, the self-cleavage was 0.0619.

Turning to A10G A23C, the self-cleavage was determined as 0.714.

Turning to C5G G16U, the self-cleavage worked out at 0.0938.

Take G42C G47A: the self-cleavage was 0.43.

Take G42C G47C: the self-cleavage turned out to be 0.467.

For the variant A35C C46A, the self-cleavage amounted to 0.98.

Take C5G G28U: the self-cleavage stood at 0.279.

Take C3U A10U: the self-cleavage worked out at 0.584.

Turning to C19A C21A, the self-cleavage worked out at 0.0702.

For the variant C21U A33G, the self-cleavage was 0.146.

On to G16C G42C, for which the self-cleavage stood at 0.121.

On to A30U U37A, for which the self-cleavage came to 0.742.

Take C26U G42A: the self-cleavage was 0.13.

On to C9U A30C, for which the self-cleavage stood at 0.526.

Consider C9U A30G, for which the self-cleavage stood at 0.865.

For C14U A30U, the self-cleavage came to 1.06.

On to A1C G7A, for which the self-cleavage worked out at 0.155.

On to C3U A23C, for which the self-cleavage was found to be 0.12.

As to A23U G29A, the self-cleavage came to 0.285.

In the case of U6G A22U, the self-cleavage is 0.136.

C5U U37A: the self-cleavage turned out to be 0.547.

As for C3A C25U, the self-cleavage worked out at 0.16.

C21U C27G: the self-cleavage amounted to 0.0722.

Turning to A23G C27A, the self-cleavage came out at 0.147.

Regarding C9G A35U, the self-cleavage came to 0.695.

As to G42A, the self-cleavage amounted to 0.516.

Turning to C21A G29C, the self-cleavage was 0.0813.

As for A23C G47A, the self-cleavage came to 0.127.

Turning to A22C A33U, the self-cleavage stood at 0.983.

With G39U G43A, the self-cleavage stood at 0.138.

In the case of C5G G29U, the self-cleavage worked out at 0.584.

Regarding A34G G44U, the self-cleavage is 0.722.

As for C9A G48U, the self-cleavage was 0.451.

A33G G39U: the self-cleavage came out at 0.222.

As for U12G C19A, the self-cleavage amounted to 0.601.

Turning to C20A C46G, the self-cleavage is 0.0871.

In the case of C26A G44U, the self-cleavage stood at 0.456.

In the case of A34U G45U, the self-cleavage worked out at 0.59.

As to U12C G24U, the self-cleavage is 0.168.

With C3G G41A, the self-cleavage is 0.209.

For the variant C5A C9G, the self-cleavage was determined as 0.0413.

For A2G C21A, the self-cleavage came to 0.0688.

Consider C25U G39A, for which the self-cleavage is 0.141.

Turning to C5A C27U, the self-cleavage came out at 0.249.

On to A1U C14U, for which the self-cleavage is 0.08.

In the case of G45U, the self-cleavage was found to be 0.902.

In the case of G17C C26U, the self-cleavage turned out to be 0.17.

In the case of G17A C20U, the self-cleavage worked out at 0.373.

In the case of A4G A34C, the self-cleavage is 0.128.

With A1C A32G, the self-cleavage worked out at 0.18.

Take A2G A4U: the self-cleavage stood at 0.117.
